Test results taken from PMC10899749.

Legend:
[1] = test system: H-NS K120ace (Edwardsiella piscicida EIB202); assay: competition EMSA; conditions: EMSA: 20 ng Cy5 probe, 20 mM Tris pH 8.0, 150 mM NaCl, 0.1 mM DTT, 0.1 mM EDTA, 200 ng poly(dI:dC), 25 C, 30 min; 10% PAGE in Tris-glycine at 4 C
[2] = test system: H-NS (Edwardsiella piscicida EIB202); assay: competition EMSA; conditions: EMSA: 20 ng Cy5 probe, 20 mM Tris pH 8.0, 150 mM NaCl, 0.1 mM DTT, 0.1 mM EDTA, 200 ng poly(dI:dC), 25 C, 30 min; 10% PAGE in Tris-glycine at 4 C

Substance: PesrB (esrB promoter)
- binding signal (% H-NS K120ace-bound DNA lost) [1]: 87
- binding signal (% H-NS-bound DNA lost) [2]: 43
